Results reported in the supplement of paper PMC9170038.

Legend:
Conditions in all cases: FMN input: 0 or 200 uM; Eterna round: R93 (includes R88 designs)
[1] = system: MS2 coat protein; assay: apparent KD of MS2 coat protein, switch OFF state (with FMN for OFF switches, without FMN for ON switches); designed switch direction (-1 OFF switch, 1 ON switch): 1; higher = weaker reporter binding
How it was run: (§1)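 Normalised binding curves from single clusters were fitted, and the median fit for each design is given as apparent KD. The clusters held designed RNA switches transcribed on-chip from Illumina sequencing clusters. These were titrated with SNAP-549-labelled MS2 coat protein (twofold steps from 0.7 or 1.5 nM to 3 µM, 0.8–1.5 h to 10–20 min per step) in 100 mM Tris-HCl pH 7.5, 80 mM KCl, 4 mM MgCl2, without or with constant ligand.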

[2] = system: MS2 coat protein; assay: apparent KD of MS2 coat protein, switch ON state; designed switch direction (-1 OFF switch, 1 ON switch): 1; higher = weaker reporter binding
How it was run: as §1

[3] = system: MS2 coat protein; assay: apparent KD of MS2 coat protein, switch ON state; designed switch direction (-1 OFF switch, 1 ON switch): -1; higher = weaker reporter binding
How it was run: as §1

[4] = system: MS2 coat protein; assay: apparent KD of MS2 coat protein, switch OFF state (with FMN for OFF switches, without FMN for ON switches); designed switch direction (-1 OFF switch, 1 ON switch): -1; higher = weaker reporter binding
How it was run: as §1

AAAAGACAUGAGGAUCACCCAUGUCAAGACAUAGGAGGAUAUGUCAUGAAAAAAGACUUGACAGAAGGCCUUUGUC [SS1 - 51]
apparent KD of MS2 coat protein [1]: 17.4 nM | apparent KD of MS2 coat protein [2]: 16.7 nM

AAUAACAAAAGAAAGGAUAUAUAAACAGGAACAUGAGGAUCACCCAUGUGCCGCCAAGGCGGAUAAUAGAAGGUUCACAUGCAUA [Default title]
apparent KD of MS2 coat protein [1]: 25.3 nM | apparent KD of MS2 coat protein [2]: 47 nM

AAAAGACAUGAGGAUCACCCAUGUGAAAACGUAGGAGGAUAUGUCUGGAAAACAGACUGGACAGAAGGCCUGUGUC [SS1 - 33]
apparent KD of MS2 coat protein [1]: 36 nM | apparent KD of MS2 coat protein [2]: 24.4 nM

AGAAAUAAAAGGCAGGAUAUCCAAAAGAAAACAUGAGGAUCACCCAUGUAAAAGAAAAAAAAAUGGGAGAAGGGCCAAAUAAAGA [Mat - Same State 2 - Eli mod - D90]
apparent KD of MS2 coat protein [1]: 21.4 nM | apparent KD of MS2 coat protein [2]: 20.7 nM

CGGCUACAUGAGGAUCACCCAUGUCAGCCGAGGGCAGGAUAUGUGGUUCAUUCUCAAGCAACAGAAGGGUCAAAAG [Istiacedi]
apparent KD of MS2 coat protein [1]: 18.7 nM | apparent KD of MS2 coat protein [2]: 16.9 nM

GAAAAACAUGAGGAUCACCCAUGUGUAAACAUGGGAGGAUAUACGAAGACGUAAGUCAAAGUAGAAGGCCUAAAAG [Garnet 36]
apparent KD of MS2 coat protein [1]: 24.9 nM | apparent KD of MS2 coat protein [2]: 47.1 nM

AAUAUAUUAUUUAAGGAUAUCAUAGGAAAAACAUGAGGAUCACCCAUGUGGGAAACCUGGUCGGGUGAGAAGGUGGAUAAUAUAU [Samwise Clockwise 34 - Jieux - Same State 2]
apparent KD of MS2 coat protein [1]: 317 nM | apparent KD of MS2 coat protein [2]: 93.7 nM

AGAAAUAAAACGCAGGAUAUCCAAAAGAAAACAUGAGGAUCACCCAUGUAAAAGAAAAUAAAAUGGGAGAAGGGCGAAAUAAAGA [Mat - Same State 2 - Eli mod - D92]
apparent KD of MS2 coat protein [1]: 20.9 nM | apparent KD of MS2 coat protein [2]: 19.3 nM

AAAAAAAAAAGAGAGGAUAUCCAAAAAAAAACAUGAGGAUCACCCAUGUAAAAAAAAAAAAAAUGGGAGAAGGCUCAAAAAAAAAA [Helter Skelter 1]
apparent KD of MS2 coat protein [1]: 54.8 nM | apparent KD of MS2 coat protein [2]: 33.4 nM

AACAAUCUAUCUGAGGAUAUCAUGUCAAAGACAUGAGGAUCACCCAUGUGUAGGAAAACUACAUAUGAGAAGGCAGAUAGAUUGA [SS2 :P - 598]
apparent KD of MS2 coat protein [1]: 103 nM | apparent KD of MS2 coat protein [2]: 610 nM

UGGAGACAUGAGGAUCACCCAUGUGAGAAGAGGCGAGGAUAUCGAAAGAAAGAAGAGAAACGAGAAGGCGCGAGGA [salish99-SS1-039]
apparent KD of MS2 coat protein [1]: 49.8 nM | apparent KD of MS2 coat protein [2]: 47.6 nM

AAUAUACAUGAGGAUCACCCAUGUUUUAAUAGCUGAGGAUAUACGGGUGAAAACAGCAUAGUAGAAGGCAGGUAUA [SameState1 Malc#7]
apparent KD of MS2 coat protein [1]: 86.7 nM | apparent KD of MS2 coat protein [2]: 27.6 nM

AAAAAGAACACGCAGGAUAUGCAAAGAAACACAUGAGGAUCACCCAUGUCCAAAAACCCAAAAACGCAGAAGGGCGAAAAACCCA [Default title]
apparent KD of MS2 coat protein [1]: 28.3 nM | apparent KD of MS2 coat protein [2]: 25.6 nM

AUAAAACAUGAGGAUCACCCAUGUAGAAAUAUGGGAGGAUAUACGAAGACGAAAGUCGAAGUAGAAGGCCUAAAAG [Mat - Same State 1 - Meechl mod - D116]
apparent KD of MS2 coat protein [1]: 67.7 nM | apparent KD of MS2 coat protein [2]: 27.7 nM

UGGAGACAUGAGGAUCACCCAUGUGAGAAGAGGCGAGGAUAUCGAAAGAAAGAAGAGAAACGAGAAGGCGCGAGGU [salish99-SS1-036]
apparent KD of MS2 coat protein [1]: 49.6 nM | apparent KD of MS2 coat protein [2]: 34.4 nM

AUAAUAAUAAGGUAGGAUAUACUAAAGUAAACAUGAGGAUCACCCAUGUAAAGAAAAAAACUCAUGUAGAAGGGCCAGAAAUAAA [moonwalk 3]
apparent KD of MS2 coat protein [1]: 62.3 nM | apparent KD of MS2 coat protein [2]: 53.2 nM

AAAAAACAUGAGGAUCACCCAUGUAAAAAAAUGGGAGGAUAUACAAAAACGAAAGAAAAAGUAGAAGGCCUGAAAA [same state 7]
apparent KD of MS2 coat protein [1]: 159 nM | apparent KD of MS2 coat protein [2]: 37.7 nM

AUAUGCAUAGACAAGGAUAUCGGUCUAGAAACAUGAGGAUCACCCAUGUAAGUGAAAAUCUGUAAUGAGAAGGUGUUGUUGGGUU [Isan]
apparent KD of MS2 coat protein [1]: 89.4 nM | apparent KD of MS2 coat protein [2]: 75 nM

AAAAAACAUGAGGAUCACCCAUGUGCAAAAUUCGCAGGAUAUUUCUCAAUUAAAUGAGAGGAAGAAGGGUGAAAAA [Nob's Hobby 27 - Jieux - Same State 1]
apparent KD of MS2 coat protein [1]: 99.3 nM | apparent KD of MS2 coat protein [2]: 21.5 nM

AAGAAACAUGAGGAUCACCCAUGUAGAAAUAUGGGAGGAUAUACAAAGACGAAAGUCAAAGUAGAAGGCCUGAAAG [Mat - Same State 1 - Eli mod - 84]
apparent KD of MS2 coat protein [1]: 72.4 nM | apparent KD of MS2 coat protein [2]: 38.5 nM

AGAAAUAAAAGAGAGGAUAUCCAAAAGAAAACAUGAGGAUCACCCAUGUAAAAGAAAAUAAAGUGGGAGAAGGCUCAAAAUAAGA [Jieux modified]
apparent KD of MS2 coat protein [1]: 129 nM | apparent KD of MS2 coat protein [2]: 16.4 nM

GGGAGACAUGAGGAUCACCCAUGUGAGAAGAGGCGAGGAUAUCGAAAGAAAGAAGAGAAACGAGAAGGCGCGAGUG [salish99-SS1-058]
apparent KD of MS2 coat protein [1]: 82 nM | apparent KD of MS2 coat protein [2]: 64.8 nM

AAAAAACAUGAGGAUCACCCAUGUCGAAAGACGUGAGGAUAUGUACAGACUUCGGUCUGUACAGAAGGCACAAAAA [SS1 - 1032]
apparent KD of MS2 coat protein [1]: 208 nM | apparent KD of MS2 coat protein [2]: 24.6 nM

UGGAGACAUGAGGAUCACCCAUGUGAGAAGAGGCGAGGAUAUCGAAAGAAAGAAGAGAAACGAGAAGGCGCGAGAU [salish99-SS1-034]
apparent KD of MS2 coat protein [1]: 27.6 nM | apparent KD of MS2 coat protein [2]: 21 nM

UAACGCGCAUGCAAGGAUAUGUGCAGAGCUACAUGAGGAUCACCCAUGUGGUUAUGCUAUUGAAAACAGAAGGUGCCCUCGCUCA [Ceties]
apparent KD of MS2 coat protein [1]: 16.8 nM | apparent KD of MS2 coat protein [2]: 22.4 nM

UGAAGACAUGAGGAUCACCCAUGUGGGAAUAUGGGAGGAUAUACAAAGACGAGAGUCAGAGUAGAAGGCCUAGGAA [salish99-ss1-95]
apparent KD of MS2 coat protein [1]: 114 nM | apparent KD of MS2 coat protein [2]: 28.5 nM

AGGAAACAUGAGGAUCACCCAUGUAAAAAUAUGGGAGGAUAUACAAACAGGAAAGUGAGAGUAGAAGGCCUAAAAG [Garnet 19]
apparent KD of MS2 coat protein [1]: 231 nM | apparent KD of MS2 coat protein [2]: 42.4 nM

GAAAUACAUGAGGAUCACCCAUGUUAGGUGAUUCAAGGAUAUCAAGGUAAAUAAAAACCUUGAGAAGGUGAAUAAA [JR_SS001_Sub205]
apparent KD of MS2 coat protein [1]: 163 nM | apparent KD of MS2 coat protein [2]: 177 nM

AAUAAUUAUACGAAGGAUAUCGGUAUUAAGACAUGAGGAUCACCCAUGUAAUAUGGUUAUAUAAACGAGAAGGUCGAGGGUGAAA [JR_SS002_Sub008]
apparent KD of MS2 coat protein [1]: 36.9 nM | apparent KD of MS2 coat protein [2]: 38.6 nM

AACAGUACAGGAUAUACAUGAGGAUCACCCAUGUGAGAAUUAAGUGGAGGACCACAAAGUAGAAGGGUACUGAA [Mat - Exclusion 3 - JL mod - D9]
apparent KD of MS2 coat protein [3]: 56.9 nM | apparent KD of MS2 coat protein [4]: 109 nM

ACUUGACAUGAGGAUCACCCAUGUCAGGAUAUAGUACGACAAAUAAAUAAAAGUUCUACUAGAAGGGAUAUGGA [Amethyst 53]
apparent KD of MS2 coat protein [3]: 17 nM | apparent KD of MS2 coat protein [4]: 15.5 nM

AAAAAUGGAGGAUAUACAUGAGGAUCACCCAUGUGUAUAAAAAAAUACACAAAAGAAAGUAGAAGGCCAUAAAA [Ex 3 Ice]
apparent KD of MS2 coat protein [3]: 35 nM | apparent KD of MS2 coat protein [4]: 94.3 nM

AAAAAGUCAGGAUAUCGUAGAAAAAUAUAAAUAAGAAAGUACGAGAAGGGACAUGAGGAUCACCCAUGUAAAAA [Ex 4 #1]
apparent KD of MS2 coat protein [3]: 50 nM | apparent KD of MS2 coat protein [4]: 36.8 nM

AAAAAGGUAGGAUAUACGAAAAAAAAAGGUGAAAAAAAAAAACAUGAGGAUCACCCAUGUAGAAGGACCAAAAA [Ex 2 sub 1 70% 2]
apparent KD of MS2 coat protein [3]: 39.3 nM | apparent KD of MS2 coat protein [4]: 76.7 nM

AAGAGUAGAGGAUAUACAUGAAAAGAGUCGAAAGACUCAAAACAUGAGGAUCACCCAUGUAGAAGGCUACUCAA [Hyphema Seclusion Mod 62% 3]
apparent KD of MS2 coat protein [3]: 137 nM | apparent KD of MS2 coat protein [4]: 81.4 nM

CUCAAGUUAGGAUAUACAAGAAAAGAAGAGAAAGAAAAGAAGUAGAAGGAACAUGAGGAUCACCCAUGUAAGAA [EteRNA is fun!]
apparent KD of MS2 coat protein [3]: 33.2 nM | apparent KD of MS2 coat protein [4]: 25.7 nM

AAAAAACAUGAGGAUCACCCAUGUGAGGAUAUGCUAUGGAAAAUAAAAAUAAAACAUAGCAGAAGGCACAAUGU [Denovo 5]
apparent KD of MS2 coat protein [3]: 50.9 nM | apparent KD of MS2 coat protein [4]: 85.2 nM

AACAAGUCAGGAUAUCCGAAAAGUAAAUAAGUAAAACAAAAGGAGAAGGGACAUGAGGAUCACCCAUGUAAAUA [JR_Exc004_Sub015]
apparent KD of MS2 coat protein [3]: 48.1 nM | apparent KD of MS2 coat protein [4]: 27.2 nM

AACAGUACAGGAUAUACAUGAGGAUCACCCAUGUAAAAUAAAUAAAAAUAAAAGGGAAGUAGAAGGGUACUGGA [Moding Maslow revisited (73) 17]
apparent KD of MS2 coat protein [3]: 31.6 nM | apparent KD of MS2 coat protein [4]: 46.5 nM

AUAAAACAUGAGGAUCACCCAUGUGAGGAUAUCUGAAAAAAAAAAAGAAAAAAAAAAAAGAGAAGGCACAAUAA [Amethyst 44]
apparent KD of MS2 coat protein [3]: 65.1 nM | apparent KD of MS2 coat protein [4]: 79.4 nM

GAAAAACAUGAGGAUCACCCAUGUUAGGAUAUGCUAUGGAAAAAUAAAAUAAAACAUAGCAGAAGGGACAAAAG [Mat - Exclusion 1 - Eli mod - D29]
apparent KD of MS2 coat protein [3]: 24.7 nM | apparent KD of MS2 coat protein [4]: 88.5 nM

UAGGUACGAGGAUAUACAUAGAUACAGACACAUGUAGAUGUACAUGAGGAUCACCCAUGUAGAAGGCGUAUAUA [Mat - Same state - Mayanna Mod - D110]
apparent KD of MS2 coat protein [3]: 52.6 nM | apparent KD of MS2 coat protein [4]: 142 nM
